From patent publication US11926665B2, “Methods of treating cancer with anti-TIM-3 antibodies” (TESARO, INC., priority 2017, dated 2024)

Columns and labels:
PARP activity = settings: various cell lines, DNA damage by hydrogen peroxide, cited from earlier work
TIM-3 = target: T1, TIM-3 (Homo sapiens, UniProt Q8TDQ0); assay: TIM-3 receptor occupancy on circulating CD14+ monocytes by flow cytometry; format: in vivo
T1 construct: endogenous in cells; host or cells: circulating CD14+ monocytes in patients' whole blood
Description: TIM-3 receptor occupancy (RO) by TSR-022 on circulating CD14^+ monocytes was measured by flow cytometry. Briefly, whole blood samples from patients treated with TSR-022 were stained with anti-CD14, a non-competing anti-TIM-3 antibody (indicating total TIM-3) and a competing anti-TIM-3 antibody (indicating unbound or free TIM-3). TIM-3 occupancy by infused TSR-022 was estimated as the ratio of free TIM-3 on CD14+ cells to the total TIM-3 on CD14+ cells. A decrease in the ratio indicates an increase in TSR-022 bound TIM-3 receptor. To measure binding in the RO assay, whole blood was collected from patients at baseline (Day 1 predose), 48 hours following the first dose (Day 3) and prior to the second dose (Day 15 predose) for the Q2W schedule. […] Samples for occupancy measurement on the Q3W schedule were collected as follows: Day 1 predose, Day 5, Day 15 and Day 22. Ex vivo TSR-022 saturated healthy donor samples (“sat”) as well as controls lacking detection antibodies (“Bkgd”) were included as controls.
FIGS. 7A-7C respectively show receptor occupancy studies of the anti-TIM-3 antibody (TSR-022) administered at doses of 1 mg/kg (FIG. 7A), 3 mg/kg (FIG. 7B), and 10 mg/kg (FIG. 7C) every two weeks (Q2W). All samples were pre-dose, with occupancy measured after a single dose on day 1. The occupancy ratio (free TIM-3:total TIM-3) is determined at various time points (for example, timepoints can include day 1, day 3, day 15, day 22, and day 29). The receptor occupancy is maximal on day 3 across doses of TSR-022.

[1] = Phase 1 dose escalation, safety and tolerability; format: in vivo
Description: The study comprises several parts: dose escalation and cohort expansion. Part 1a of the study (dose escalation) is intended, inter alia, to evaluate the safety, PK, and PDy profile, tolerability and anti-cancer effect of the anti-TIM-3 antibody. […] Part 1a could also comprise the testing of a “flat” dose, or a specific fixed number of milligrams of antibody (as opposed to the weight based dosing mg/kg). Flat doses could range from 200 mg to 1500 mg of anti-TIM-3 antibody. Part 1b of the study (combination with PD1 dose escalation cohorts) is intended, inter alia, to evaluate the safety, PK, and PDy profile, tolerability and anti-cancer effect of the anti-TIM-3 antibody in combination with an anti-PD-1 antibody wherein the anti-TIM-3 antibody is administered as a dose escalation. […] The anti-PD-1 antibody can be dosed at an approved dose and schedule for a marketed agent and on a weight basis at a dose of 3 or 10 mg/kg Q2W or Q3W or on a flat dose basis of 500 mg antibody Q2W or Q3W by using a modified 3+3 design.
Primary endpoints include determining the safety and tolerability of TSR-022 by Common Terminology Criteria for Adverse Events (CTCAE v4) and to determine the recommended phase 2 dose (RP2D) and schedule for monotherapy and combination with an anti-PD-1 antibody. […]

[2] = Phase 1 study, serum pharmacokinetics after first dose; format: in vivo; settings: patients, first dose 0.03-10 mg/kg, monitored for two weeks, FIG. 6A
Description: (§1) This example describes a multicenter, open-label, first-in-human Phase 1 study evaluating a TIM-3 binding agent (an anti-TIM-3 antibody), in patients with tumors. Specifically the dosage effects in patients with advanced solid tumors treated with a particular TIM-3 binding agent. A TIM-3 binding agent (TSR-022) as described in the present study comprises a humanized monoclonal anti-TIM-3 antibody comprising a heavy chain whose amino acid sequence comprises SEQ ID NO: 3 and a light chain whose amino acid sequence comprises SEQ ID NO:4 are evaluated. This anti-TIM-3 antibody utilizes a human IGHG4*01 heavy chain gene, and a human IGKC*01 kappa light chain gene, as scaffolds. Further, there is a single Ser to Pro point mutation in the hinge region of the IgG4 heavy chain at the canonical S228 position.
The study comprises several parts: dose escalation and cohort expansion. Part 1a of the study (dose escalation) is intended, inter alia, to evaluate the safety, PK, and PDy profile, tolerability and anti-cancer effect of the anti-TIM-3 antibody. […]
After patients received the first dose of TSR-022 at various levels (0.03-10 mg/kg), the TSR-022 concentration in serum was monitored for two weeks and the pharmacokinetic (PK) behaviors were characterized.

[3] = tested on: advanced or metastatic solid tumors; assay: Phase 1 dose escalation, best tumor response; format: in vivo, human
Description: as §1
Patients were included with histologically or cytologically proven advanced (unresectable) or metastatic solid tumor and who had disease progression after treatment with available therapies that are known to confer clinical benefit or who are intolerant to other known treatment(s).
The study comprises several parts: dose escalation and cohort expansion. Part 1a of the study (dose escalation) is intended, inter alia, to evaluate the safety, PK, and PDy profile, tolerability and anti-cancer effect of the anti-TIM-3 antibody. A modified 3+3 design was used for dose escalation at 0.03 mg/kg, 0.1 mg/kg, 0.3 mg/kg, 1.0 mg/kg, 3 mg/kg, and 10 mg/kg and higher every 2 weeks (Q2W) with the dose of the TIM-3 antibody not to exceed 20 mg/kg. […]
The best response observed was also evaluated in efficacy evaluable patients (e.g., patients who received at least two doses and either had at least one post-baseline assessment or had discontinued treatment due to clinical progression prior to post-baseline tumor assessment. Stable disease (5/25 patients) and partial response (1/25 patients at 10 mg/kg) were observed as the best response in patients with rectal, thyroid, neuroendocrine, or head and neck cancer, or with soft tissue sarcoma.

| Compound | IC50 (PARP activity; read-out: IC50, PARP activity in cells) [nM] | IC90 (PARP activity; read-out: inhibitory concentration at 90% of control (IC90), PARP activity in cells) [nM] | day through which maximal occupancy is maintained (TIM-3; 3 mg/kg, single dose on day 1, FIG. 7B) [days] | maintenance of maximal occupancy (TIM-3; 10 mg/kg, through the days of available data, versus 3 mg/kg, FIG. 7C) | receptor occupancy compared between regimens (TIM-3; 100 mg Q3W versus 3 mg/kg Q2W) | target coverage in the periphery (receptor occupancy) (TIM-3; 100 mg flat dose Q3W, single dose on day 1, FIG. 10) | receptor occupancy (RO) (TIM-3; 300 mg flat dose TSR-022 in combination with 500 mg flat dose TSR-042, FIG. 11) | mean occupancy ratio (free TIM-3:total TIM-3) (TIM-3; 1, 3, 10 mg/kg and flat doses of 100, 300, 1200 mg, over a range of days, FIG. 12) | receptor occupancy on peripheral monocytes versus exposure (TIM-3; patients, whole blood, FIG. 6B) | day on which receptor occupancy is maximal (TIM-3; single dose on day 1, across doses 1, 3, 10 mg/kg, FIGS. 7A-7C) [days] | MTD ([1]; dose escalation continued to 1.0 mg/kg Q2W) | tolerability ([1]; monotherapy, patients) | PK behavior, serum concentration versus time [2] | stable disease as best response ([3]; efficacy evaluable patients, monotherapy Part 1a, 0.03-10 mg/kg Q2W) | partial response as best response ([3]; efficacy evaluable patients, monotherapy, at 10 mg/kg) | tumor reduction ([3]; one patient with metastatic leiomyosarcoma, 3 doses at 10 mg/kg, pending confirmatory imaging) [%] |
| --- | --- | --- | --- | --- | --- | --- | --- | --- | --- | --- | --- | --- | --- | --- | --- | --- |
| NC(=O)c1cccc2cn(-c3ccc([C@@H]4CCCNC4)cc3)nc12 [Niraparib, (3S)-3-[4-{7-(aminocarbonyl)-2H-indazol-2-yl}phenyl]piperidine] | ~4 | ~50 | – | – | – | – | – | – | – | – | – | – | – | – | – | – |
| TSR-022: humanized monoclonal anti-TIM-3 IgG4 antibody, heavy chain SEQ ID NO: 3, light chain SEQ ID NO: 4, S228 Ser to Pro hinge mutation | – | – | ≥ 29 | comparable results are obtained | comparable to 3 mg/kg Q2W | achieved at 100 mg for the duration of the dosing interval | high RO can be maintained over the measured time period | high occupancy ratios | correlate with TSR-022 exposure | 3 | a MTD has not yet been identified | well-tolerated across multiple dose levels | linear PK behavior | 5/25 | 1/25 | 32 |
